Results taken from publication PMC4022893, “Evidence for Follicle-stimulating Hormone Receptor as a Functional Trimer*” (The Journal of Biological Chemistry, 2014).

T1: human follicle-stimulating hormone receptor on CHO-DUKX cell membranes (human, UniProt P23945 18-695)
T1 construct: follicle-stimulating hormone receptor, human, expressed in CHO-DUKX cells; Used as isolated membranes, not live cells; also called FSHR; hFSHR; source: CHO-DUKX cells expressing the human FSH receptor, membrane preparation (nitrogen cavitation, 100,000 x g pellet)
T1 sequence (looked up): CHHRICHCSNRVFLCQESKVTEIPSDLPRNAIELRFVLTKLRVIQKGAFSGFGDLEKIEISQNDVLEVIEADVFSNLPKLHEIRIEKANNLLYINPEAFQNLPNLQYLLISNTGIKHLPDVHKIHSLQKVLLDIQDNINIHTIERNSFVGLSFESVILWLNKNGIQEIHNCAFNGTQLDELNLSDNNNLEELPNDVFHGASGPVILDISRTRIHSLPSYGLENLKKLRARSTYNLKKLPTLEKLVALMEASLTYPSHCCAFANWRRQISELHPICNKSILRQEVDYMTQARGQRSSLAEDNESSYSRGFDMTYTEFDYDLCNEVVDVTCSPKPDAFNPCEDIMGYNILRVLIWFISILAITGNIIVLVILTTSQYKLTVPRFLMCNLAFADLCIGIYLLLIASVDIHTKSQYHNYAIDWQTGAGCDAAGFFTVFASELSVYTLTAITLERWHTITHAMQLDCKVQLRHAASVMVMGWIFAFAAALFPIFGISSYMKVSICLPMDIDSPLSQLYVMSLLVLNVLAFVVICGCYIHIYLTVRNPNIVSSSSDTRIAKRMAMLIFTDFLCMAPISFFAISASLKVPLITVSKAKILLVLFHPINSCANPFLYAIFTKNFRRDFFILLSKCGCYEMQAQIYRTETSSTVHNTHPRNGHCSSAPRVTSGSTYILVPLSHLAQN


Key:
[1] = molecular target: the molecule itself; experiment: crystal structure; FSH-FSHRED complex at 10 mg/ml, 20 °C, hanging drops, 0.1 M imidazole pH 8.0, 20% Jeffamine M-600; space group P3_(1)
[2] = molecular target: T1, human follicle-stimulating hormone …; experiment: radioligand binding; 5 μg CHO-FSHR membrane with increasing concentrations of 125I-ligand; 10 mM Tris pH 7.4, 5 mM MgCl2, 0.2% BSA; 90 min at 37 °C; filtration; nonspecific binding with 500-fold excess of FSH; no Compound 5; settings: one partner purified
[3] = molecular target: T1, human follicle-stimulating hormone …; experiment: as above; settings: one partner purified; remark: listed apart in the source

| receptor binding ratio of the N52D mutant to fully glycosylated FSH [2] | Kd [3] [nM] | Binder | stoichiometry N [1] |
| --- | --- | --- | --- |
| – | – | full ectodomain of human FSHR (FSHRED, Ser16-Arg366) (domain or fragment, UniProt P23945 16-366, looked up, follicle-stimulating hormone receptor, human, full ectodomain, residues Ser16-Arg366; Three copies form a trimer in the crystal; also called FSHED; FSHR extracellular domain) SGCHHRICHCSNRVFLCQESKVTEIPSDLPRNAIELRFVLTKLRVIQKGAFSGFGDLEKIEISQNDVLEVIEADVFSNLPKLHEIRIEKANNLLYINPEAFQNLPNLQYLLISNTGIKHLPDVHKIHSLQKVLLDIQDNINIHTIERNSFVGLSFESVILWLNKNGIQEIHNCAFNGTQLDELNLSDNNNLEELPNDVFHGASGPVILDISRTRIHSLPSYGLENLKKLRARSTYNLKKLPTLEKLVALMEASLTYPSHCCAFANWRRQISELHPICNKSILRQEVDYMTQARGQRSSLAEDNESSYSRGFDMTYTEFDYDLCNEVVDVTCSPKPDAFNPCEDIMGYNILR | 3 |
| ~3 | 0.4 | 125I-N52D-FSH (FSH with Asn52 of the alpha-subunit mutated to aspartate) (ligand, no glycan at position 52; 125I label (chain not stated), glycoprotein hormones alpha chain (FSH alpha-subunit), human; Heterodimer; the other three glycosylation sites are unchanged; also called αN52D-FSH mutant; mutant-N52D; source: recombinant, prepared using the same protocols as the fully glycosylated FSH; 125I-labelled (PerkinElmer Life Sciences)) chain 1: not shown chain 2: NSCELTNITIAIEKEECRFCISINTTWCAGYCYTRDLVYKDPARPKIQKTCTFKELVYETVRVPGCAHHADSLYTYPVATQCHCGKCDSDSTDCTVRGLGPSYCSFGEMKE | – |
